Laboratory results from PMC6345565.
pEC50, pIC50, pKd: −log10 of the molar value. Like-named read-outs stand apart in the source and are kept apart here. Blank lines part the entries; values can stand above or below the substance they belong to.

Columns and labels:
[1] = target: TAC-YFP-DAT C24 (C-terminus of the dopamine transporter on TAC-YFP) (not stated | not stated (human DAT is named for the β2-DAT8 constructs)); assay: supported cell membrane sheets (SCMS), confocal microscopy, association time course; PICK1 binding as a function of incubation time; PICK1 100 nM for LKV and LKI
[2] = target: FLAG-β2 DAT8 LKI (rat (Rattus norvegicus) | human); assay: as above
[3] = target: FLAG-β2 DAT8 LKI (rat (Rattus norvegicus) | human); assay: supported cell membrane sheets (SCMS), confocal microscopy, dissociation time course; PICK1 dissociation from sheets expressing LKV (two-state fit) or LKI (one-state fit)
[4] = target: FLAG-β2 DAT8 LKI (rat (Rattus norvegicus) | human); assay: supported cell membrane sheets (SCMS), confocal microscopy, association time course; PICK1 binding as a function of incubation time; PICK1 100 nM for LKV and LKI; remark: listed apart in the source
[5] = target: FLAG-β2 DAT8 LKA (rat (Rattus norvegicus) | human); assay: supported cell membrane sheets (SCMS), confocal microscopy, saturation binding; labelled PICK1 in sheet buffer (120 mM KCl, 2 mM MgCl2, 0.1 mM CaCl2, 10 mM HEPES, 30 mM glucose pH 7.35) overlaid for 2 h on ice on sheets from transfected HEK293 GripTite cells; PICK1 signal divided by receptor signal; apparent affinity (Kd*), headed EC50 in the tables
[6] = target: TAC-YFP-DAT C24 (C-terminus of the dopamine transporter on TAC-YFP) (not stated | not stated (human DAT is named for the β2-DAT8 constructs)); assay: as above
[7] = target: TAC-YFP-GluA2 (24 C-terminal residues of GluA2 on the IL-2 receptor α-subunit fused to YFP) (not stated | rat (Rattus norvegicus)); assay: as above
[8] = target: FLAG-β2 DAT8 LKI (rat (Rattus norvegicus) | human); assay: as above
[9] = target: FLAG-β2 DAT8 LKI (rat (Rattus norvegicus) | human); assay: supported cell membrane sheets (SCMS), confocal microscopy, saturation binding of exchanged dimers; monomers purified in 0.1% TX-100, mixed and diluted at least 100-times to form WT/WT or WT/A87L dimers (A87L in 4 times excess); sheets expressing LKV or LKI; read in the WT and the A87L channel; apparent (Kd*)
[10] = target: TAC-YFP-DAT C24 (C-terminus of the dopamine transporter on TAC-YFP) (not stated | not stated (human DAT is named for the β2-DAT8 constructs)); assay: supported cell membrane sheets (SCMS), confocal microscopy, competition binding; 100 nM labelled SNAP-PICK1 premixed with increasing unlabelled PICK1 WT, 120 min, on sheets expressing TAC-YFP-DAT; half maximal binding reported as Ki*
[11] = target: Oregon Green-labeled DAT C13 peptide (not stated (human DAT is named for the β2-DAT8 constructs)); assay: fluorescence polarisation; saturation: PICK1 diluted to various concentrations, 20 nM OrG DAT C13; 50 mM Tris pH 7.4, 125 mM NaCl, 1 mM DTT, 0.01% Triton X-100; 30 min on ice

time to half maximum binding [1]: 19 min | time to half maximum binding [2]: 14 min | dissociation half-life [3]: 7.18 h | time to half maximum binding [4]: 11 min | pEC50 [5]: 7.23 | pEC50 [6]: 7.33 | pEC50 [7]: 7.14 | pEC50 [8]: 7.54 | Kd* (apparent affinity) [8]: 39 nM
Substance: SNAP-PICK1 WT (PICK1 with an N-terminal SNAP-tag, fluorescently labelled) (from UniProt Q9EP80 1-416) (natural protein)

pEC50 [9]: 6.91
Substance: PICK1 WT/A87L heterodimer (from UniProt Q9EP80 1-416; Q9EP80 1-416) (complex)

pIC50 [10]: 7.54 | pKd [11]: 5.05
Substance: PICK1 WT without SNAP-tag (from UniProt Q9EP80 1-416) (natural protein)
